Assay results reported in patent US20190241669A1 (published 2019).
Positions count from the first letter of the chain named.

B1: COMBO_Rd4_0.6nM_C21 (antibody, V domains shown)
VH: EVQLLESGGGLVQPGGSLRLSCAASGFTFSSYPMSWVRQAPGKGLEWVSAIGGSGGSLPYADSVKGRFTISRDNSKNTLYLQMNSLRAEDTAVYYCARYWPMDSWGQGTLVTVSS
VL: EIVLTQSPGTLSLSPGERATLSCRASQSVSSSYLAWYQQKPGQAPRLLMYDASIRATGIPDRFSGSGSGTDFTLTISRLEPEDFAVYYCQQYQSWPLTFGQGTKVEIK
notes: IgG
B2: A02_Rd4_6nM_C05 (antibody, V domains shown)
VH: B1 VH with P33A, S35N, G52F, G53A, L58T, P59Y, D103T, S104P
VL: B1 VL with S94R
notes: IgG
B3: A02_Rd4_6nM_C08 (antibody, V domains shown)
VH: B1 VH with P33A, S35N, G52L, G53D, L58T, P59Y, D103S, S104P
VL: B1 VL with S31F, S32L, Q93G
notes: IgG
B4: C01_Rd4_0.6nM_C03 (antibody, V domains shown)
VH: B1 VH
VL: B1 VL with Q27C, S28D, S32T, M49I, I54S, T57P, Q93M, S94R, W95S
notes: IgG
B5: A02_Rd4_6nM_C04 (antibody, V domains shown)
VH: B1 VH with P33A, S35N, G52M, G53S, S57P, P59Y, D103A, S104L
VL: B1 VL with S31A, S32L, S94V
notes: IgG
B6: A02_Rd4_0.6nM_C10 (antibody, V domains shown)
VH: B1 VH with P33A, S35N, G52S, S54W
VL: B1 VL with S31A, S32Q, S94R
notes: IgG
B7: C01_Rd4_0.6nM_C09 (antibody, V domains shown)
VH: B1 VH
VL: B1 VL with S32L, Y33F, M49I, I54S, T57P, Q93S, S94A
notes: IgG
B8: A02_Rd4_0.6nM_C13 (antibody, V domains shown)
VH: B1 VH with P33A, S35N, G52S, G53D, S57Y, L58R, P59Y, D103S, S104L
VL: B1 VL with L34W, Q93E
notes: IgG
B9: A02_Rd4_6nM_C22 (antibody, V domains shown)
VH: B1 VH with P33A, S35N, I51V, G52L, G53D, L58T, P59Y, D103T, S104P
VL: B1 VL with S94V
notes: IgG
B10: A02_Rd4_6nM_C26 (antibody, V domains shown)
VH: B1 VH with P33A, S35N, G52S, G53D, L58T, P59Y, D103S, S104L
VL: B1 VL with S32L, S94V
notes: IgG
B11: A02_Rd4_0.6nM_C03 (antibody, V domains shown)
VH: B1 VH with P33A, S35N, G52S, G53D, L58K, P59W, D103S, S104L
VL: B1 VL with Q93F, S94T
notes: IgG
B12: C01_Rd4_0.6nM_C27 (antibody, V domains shown)
VH: B1 VH
VL: B1 VL with S32T, M49I, I54S, T57P, Q93S, S94R
notes: IgG
B13: C01_Rd4_0.6nM_C16 (antibody, V domains shown)
VH: B1 VH
VL: B1 VL with S32T, M49I, I54S, T57P, Q93S
notes: IgG
B14: A02_Rd4_6nM_C10 (antibody, V domains shown)
VH: B1 VH with P33A, S35N, G52S, G53D, L58C, P59W, D103T, S104P
VL: B1 VL with S30E, S31M, Q93A, S94H
notes: IgG
B15: C01_Rd4_0.6nM_C06 (antibody, V domains shown)
VH: B1 VH
VL: B1 VL with Q27E, S28A, S30P, S32T, M49I, I54S, T57P, Q93S, S94A, W95F
notes: IgG
B16: A02_Rd4_6nM_C23 (antibody, V domains shown)
VH: B1 VH with P33A, S35N, G52S, G53D, L58G, P59W, D103S, S104L
VL: B1 VL with S31V, S32E, Q93A, S94R
notes: IgG
B17: A02_Rd4_0.6nM_C26 (antibody, V domains shown)
VH: B1 VH with P33A, S35N, G52L, G53M, L58T, P59Y, D103S, S104L
VL: B1 VL with R24G, A25P
notes: IgG
B18: A02_Rd4_0.6nM_C01 (antibody, V domains shown)
VH: B1 VH with P33A, S35N, G52L, G53S, L58T, P59Y, S104I
VL: B1 VL with A25G, S26G
notes: IgG; also called P5AC1
B19: A02_Rd4_6nM_C19 (antibody, V domains shown)
VH: B1 VH with P33A, S35N, G52S, G53D, L58R, P59W, D103S, S104D
VL: B1 VL with S31V, S32L, Q93L, S94A
notes: IgG
B20: A02_Rd4_6nM_C25 (antibody, V domains shown)
VH: B1 VH with P33A, S35N, G52S, G53D, L58R, P59W, D103T, S104P
VL: B1 VL with Q93L, S94D
notes: IgG
B21: A02_Rd4_0.6nM_C06 (antibody, V domains shown)
VH: B1 VH with P33A, S35N, G52S, G53D, L58A, P59W, D103S, S104L
VL: B1 VL with S31V, S32L, S94R
notes: IgG
B22: A02_Rd4_6nM_C07 (antibody, V domains shown)
VH: B1 VH with P33A, S35N
VL: B1 VL with S31P, S32Y, Q93E, S94R
notes: IgG
B23: A02_Rd4_0.6nM_C09 (antibody, V domains shown)
VH: B1 VH with P33A, S35N, G52S, G53D, L58M, P59W, D103S, S104L
VL: B1 VL
notes: IgG
B24: A02_Rd4_6nM_C03 (antibody, V domains shown)
VH: B1 VH with P33A, S35N, G52S, G53D, L58T, P59Y, S104I
VL: B1 VL with S31N, S32L, S94G
notes: IgG

Experiments:
cynomolgus monkey BCMA = molecular target: T1, cynomolgus monkey BCMA (cynomolgus monkey, UniProt A0A2K5UD97 1-53); assay: SPR, IgG on chip, cyBCMA analyte
T1 construct: Soluble analyte in SPR; construct not described; also called cyBCMA; Cyno BCMA
T1 sequence (A0A2K5UD97 entry or part of it): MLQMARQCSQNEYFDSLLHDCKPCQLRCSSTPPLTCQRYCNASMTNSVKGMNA

Human BCMA (human) = Human BCMA (human) (UniProt Q02223); assay: SPR, IgG on chip, huBCMA analyte

Binder	Kd (cynomolgus monkey BCMA)	koff (cynomolgus monkey BCMA)	kon (cynomolgus monkey BCMA)	Kd (Human BCMA (human))	koff (Human BCMA (human))	kon (Human BCMA (human))
B1	0.084 nM	0.000304 s⁻¹	3.63e+06 M⁻¹ s⁻¹	0.009 nM	0.000115 s⁻¹	1.34e+07 M⁻¹ s⁻¹
B2	0.95 nM	0.00129 s⁻¹	1.36e+06 M⁻¹ s⁻¹	0.099 nM	0.000308 s⁻¹	3.1e+06 M⁻¹ s⁻¹
B3	5.07 nM	0.0113 s⁻¹	2.23e+06 M⁻¹ s⁻¹	0.188 nM	0.000738 s⁻¹	3.92e+06 M⁻¹ s⁻¹
B4	2.53 nM	0.0119 s⁻¹	4.72e+06 M⁻¹ s⁻¹	0.964 nM	0.015 s⁻¹	1.55e+07 M⁻¹ s⁻¹
B5	0.381 nM	0.000831 s⁻¹	2.18e+06 M⁻¹ s⁻¹	0.135 nM	0.000603 s⁻¹	4.47e+06 M⁻¹ s⁻¹
B6	1.84 nM	0.00163 s⁻¹	883000 M⁻¹ s⁻¹	0.129 nM	0.000296 s⁻¹	2.3e+06 M⁻¹ s⁻¹
B7	1.77 nM	0.00936 s⁻¹	5.28e+06 M⁻¹ s⁻¹	0.545 nM	0.00825 s⁻¹	1.51e+07 M⁻¹ s⁻¹
B8	0.56 nM	0.00128 s⁻¹	2.29e+06 M⁻¹ s⁻¹	0.066 nM	0.000566 s⁻¹	8.53e+06 M⁻¹ s⁻¹
B9	0.176 nM	0.000324 s⁻¹	1.84e+06 M⁻¹ s⁻¹	0.054 nM	0.000182 s⁻¹	3.38e+06 M⁻¹ s⁻¹
B10	0.203 nM	0.000448 s⁻¹	2.21e+06 M⁻¹ s⁻¹	0.033 nM	0.000139 s⁻¹	4.26e+06 M⁻¹ s⁻¹
B11	0.201 nM	0.000426 s⁻¹	2.12e+06 M⁻¹ s⁻¹	0.043 nM	0.000182 s⁻¹	4.27e+06 M⁻¹ s⁻¹
B12	0.852 nM	0.00285 s⁻¹	3.34e+06 M⁻¹ s⁻¹	0.303 nM	0.00374 s⁻¹	1.23e+07 M⁻¹ s⁻¹
B13	0.939 nM	0.00464 s⁻¹	4.95e+06 M⁻¹ s⁻¹	0.407 nM	0.0063 s⁻¹	1.55e+07 M⁻¹ s⁻¹
B14	0.472 nM	0.000898 s⁻¹	1.9e+06 M⁻¹ s⁻¹	0.07 nM	0.000315 s⁻¹	4.51e+06 M⁻¹ s⁻¹
B15	1.95 nM	0.0121 s⁻¹	6.22e+06 M⁻¹ s⁻¹	0.847 nM	0.0154 s⁻¹	1.82e+07 M⁻¹ s⁻¹
B16	0.157 nM	0.000414 s⁻¹	2.63e+06 M⁻¹ s⁻¹	0.021 nM	0.000255 s⁻¹	1.22e+07 M⁻¹ s⁻¹
B17	0.941 nM	0.00256 s⁻¹	2.71e+06 M⁻¹ s⁻¹	0.061 nM	0.000443 s⁻¹	7.26e+06 M⁻¹ s⁻¹
B18	0.655 nM	0.00157 s⁻¹	2.39e+06 M⁻¹ s⁻¹	0.193 nM	0.000915 s⁻¹	4.74e+06 M⁻¹ s⁻¹
B19	0.26 nM	0.000661 s⁻¹	2.54e+06 M⁻¹ s⁻¹	0.049 nM	0.000148 s⁻¹	3e+06 M⁻¹ s⁻¹
B20	0.22 nM	0.00033 s⁻¹	1.5e+06 M⁻¹ s⁻¹	0.065 nM	0.00018 s⁻¹	2.75e+06 M⁻¹ s⁻¹
B21	0.058 nM	0.000105 s⁻¹	1.81e+06 M⁻¹ s⁻¹	0.021 nM	7.37e-05 s⁻¹	3.49e+06 M⁻¹ s⁻¹
B22	1.14 nM	0.000786 s⁻¹	691000 M⁻¹ s⁻¹	0.128 nM	0.000189 s⁻¹	1.48e+06 M⁻¹ s⁻¹
B23	0.082 nM	0.000174 s⁻¹	2.13e+06 M⁻¹ s⁻¹	0.018 nM	9.75e-05 s⁻¹	5.5e+06 M⁻¹ s⁻¹
B24	0.158 nM	0.000185 s⁻¹	1.17e+06 M⁻¹ s⁻¹	0.075 nM	0.000126 s⁻¹	1.69e+06 M⁻¹ s⁻¹
